From the supplement of paper PMC11246515
± gives the standard deviation of the averaged measurements.

Assay: total protein half-life in vivo (active degradation + dilution); higher = more stable protein
[1] = E. coli NCM3722 delta-clpP delta-lon delta-hslV, growth: N-lim chemostat, doubling time 6 h
[2] = E. coli NCM3722 delta-clpP, growth: N-lim chemostat, doubling time 6 h
[3] = E. coli NCM3722 delta-hslV, growth: N-lim chemostat, doubling time 6 h
[4] = E. coli NCM3722 delta-lon, growth: N-lim chemostat, doubling time 6 h
[5] = E. coli NCM3722 delta-smpB, growth: N-lim chemostat, doubling time 6 h
[6] = wild type E. coli NCM3722, growth: C-lim chemostat, doubling time 12 h
[7] = wild type E. coli NCM3722, growth: N-lim chemostat, doubling time 6 h
[8] = wild type E. coli NCM3722, growth: N-lim chemostat, doubling time 12 h
[9] = wild type E. coli NCM3722, growth: P-lim chemostat, doubling time 6 h
[10] = wild type E. coli NCM3722, growth: C-lim chemostat, doubling time 3 h
[11] = wild type E. coli NCM3722, growth: P-lim chemostat, doubling time 12 h
[12] = wild type E. coli NCM3722, growth: C-lim chemostat, doubling time 6 h

Sequence	total protein half-life in vivo [1] [h]	total protein half-life in vivo [2] [h]	total protein half-life in vivo [3] [h]	total protein half-life in vivo [4] [h]	total protein half-life in vivo [5] [h]	total protein half-life in vivo [6] [h]	total protein half-life in vivo [7] [h]	total protein half-life in vivo [8] [h]	total protein half-life in vivo [9] [h]	total protein half-life in vivo [10] [h]	total protein half-life in vivo [11] [h]	total protein half-life in vivo [12] [h]
MALKATIYKATVNVADLDRNQFLDASLTLARHPSETQERMMLRLLAWLKYADERLQFTRGLCADDEPEAWLRNDHLGIDLWIELGLPDERRIKKACTQAAEVALFTYNSRAAQIWWQQNQSKCVQFANLSVWYLDDEQLAKVSAFADRTMTLQATIQDGVIWLSDDKNNLEVNLTAWQQPS [P0AA97]	5.6431 ± 0.0016	3.9 ± 0.19	4.82 ± 0.38	5.25 ± 0.72	3.354 ± 0.009	8.84 ± 1.6	4.38	7.28 ± 0.26	4.93 ± 0.28			
MSRKQLALFEPTLVVQALKEAVKKLNPQAQWRNPVMFIVWIGSLLTTCISIAMASGAMPGNALFSAAISGWLWITVLFANFAEALAEGRSKAQANSLKGVKKTAFARKLREPKYGAAADKVPADQLRKGDIVLVEAGDIIPCDGEVIEGGASVDESAITGESAPVIRESGGDFASVTGGTRILSDWLVIECSVNPGETFLDRMIAMVEGAQRRKTPNEIALTILLIALTIVFLLATATLWPFSAWGGNAVSVTVLVALLVCLIPTTIGGLLSAIGVAGMSRMLGANVIATSGRAVEAAGDVDVLLLDKTGTITLGNRQASEFIPAQGVDEKTLADAAQLASLADETPEGRSIVILAKQRFNLRERDVQSLHATFVPFTAQSRMSGINIDNRMIRKGSVDAIRRHVEANGGHFPTDVDQKVDQVARQGATPLVVVEGSRVLGVIALKDIVKGGIKERFAQLRKMGIKTVMITGDNRLTAAAIAAEAGVDDFLAEATPEAKLALIRQYQAEGRLVAMTGDGTNDAPALAQADVAVAMNSGTQAAKEAGNMVDLDSNPTKLIEVVHIGKQMLMTRGSLTTFSIANDVAKYFAIIPAAFAATYPQLNALNIMCLHSPDSAILSAVIFNALIIVFLIPLALKGVSYKPLTASAMLRRNLWIYGLGGLLVPFIGIKVIDLLLTVCGLV		5.05	5.02	6.41	3.79	11.5		7.13 ± 1.7	7.01 ± 1.2	2.79	10.4 ± 0.27	
MITNYEATVVTTDDIVHEVNLEGKRIGYVIKTENKETPFTVVDIDGPSGNVKTLDEGVKKMCLVHIGKNLPAEKKAEFLATLIAMKLKGEI						10.3						5.13
MKTKLNELLEFPTPFTYKVMGQALPELVDQVVEVVQRHAPGDYTPTVKPSSKGNYHSVSITINATHIEQVETLYEELGKIDIVRMVL [P0A8J4]	3.54 ± 1.3	2.19 ± 0.44	1.24	2.23 ± 0.17	1.42 ± 0.17	3.05	1.34	1.54	2.04 ± 0.064	2.1	3.43 ± 0.32	2.72
MGEISITKLLVVAALVVLLFGTKKLRTLGGDLGAAIKGFKKAMNDDDAAAKKGADVDLQAEKLSHKE [P0A843]	1.78 ± 1	1.57 ± 0.29	1.48 ± 0.19	1.01 ± 0.26	1.05 ± 0.24	1.3 ± 0.34	1.79	2.14 ± 0.98	0.79	0.833 ± 0.13	1.59 ± 0.77	0.983
MQAYFDQLDRVRYEGSKSSNPLAFRHYNPDELVLGKRMEEHLRFAACYWHTFCWNGADMFGVGAFNRPWQQPGEALALAKRKADVAFEFFHKLHVPFYCFHDVDVSPEGASLKEYINNFAQMVDVLAGKQEESGVKLLWGTANCFTNPRYGAGAATNPDPEVFSWAATQVVTAMEATHKLGGENYVLWGGREGYETLLNTDLRQEREQLGRFMQMVVEHKHKIGFQGTLLIEPKPQEPTKHQYDYDAATVYGFLKQFGLEKEIKLNIEANHATLAGHSFHHEIATAIALGLFGSVDANRGDAQLGWDTDQFPNSVEENALVMYEILKAGGFTTGGLNFDAKVRRQSTDKYDLFYGHIGAMDTMALALKIAARMIEDGELDKRIAQRYSGWNSELGQQILKGQMSLADLAKYAQEHHLSPVHQSGRQEQLENLVNHYLFDK	4.53 ± 0.48		2.75			8.63 ± 0.81	3.53		5.81 ± 0.47	2.93 ± 0.26	11.6 ± 0.51	4.84 ± 0.15
MSVVPVADVLQGRVAVDSEVTVRGWVRTRRDSKAGISFLAVYDGSCFDPVQAVINNSLPNYNEDVLRLTTGCSVIVTGKVVASPGQGQQFEIQASKVEVAGWVEDPDTYPMAAKRHSIEYLREVAHLRPRTNLIGAVARVRHTLAQALHRFFNEQGFFWVSTPLITASDTEGAGEMFRVSTLDLENLPRNDQGKVDFDKDFFGKESFLTVSGQLNGETYACALSKIYTFGPTFRAENSNTSRHLAEFWMLEPEVAFANLNDIAGLAEAMLKYVFKAVLEERADDMKFFAERVDKDAVSRLERFIEADFAQVDYTDAVTILENCGRKFENPVYWGVDLSSEHERYLAEEHFKAPVVVKNYPKDIKAFYMRLNEDGKTVAAMDVLAPGIGEIIGGSQREERLDVLDERMLEMGLNKEDYWWYRDLRRYGTVPHSGFGLGFERLIAYVTGVQNVRDVIPFPRTPRNASF [P0A8M0]	5.93 ± 0.36	5.65 ± 0.14	5.29 ± 0.32	6.11 ± 0.23	5.45 ± 0.33	11.55 ± 0.055	5.338 ± 0.0091	9.553 ± 0.028	6.83 ± 0.74	3.23 ± 0.51	12.9 ± 0.18	6.37 ± 0.33
MSENSIRLTQYSHGAGCGCKISPKVLETILHSEQAKFVDPNLLVGNETRDDAAVYDLGNGTSVISTTDFFMPIVDNPFDFGRIAATNAISDIFAMGGKPIMAIAILGWPINKLSPEIAREVTEGGRYACRQAGIALAGGHSIDAPEPIFGLAVTGIVPTERVKKNSTAQAGCKLFLTKPLGIGVLTTAEKKSLLKPEHQGLATEVMCRMNIAGASFANIEGVKAMTDVTGFGLLGHLSEMCQGAGVQARVDYEAIPKLPGVEEYIKLGAVPGGTERNFASYGHLMGEMPREVRDLLCDPQTSGGLLLAVMPEAENEVKATAAEFGIELTAIGELVPARGGRAMVEIR	3.58 ± 0.34	2.94 ± 0.2	2.5242 ± 0.00055	3.85 ± 0.73	2.76 ± 0.077	8.899 ± 0.067	2.816 ± 0.0089	3.67 ± 0.27	5.34 ± 0.23	3.01 ± 0.23	10.1 ± 0.65	4.95 ± 0.13
MSSDIKIKVQSFGRFLSNMVMPNIGAFIAWGIITALFIPTGWLPNETLAKLVGPMITYLLPLLIGYTGGKLVGGERGGVVGAITTMGVIVGADMPMFLGSMIAGPLGGWCIKHFDRWVDGKIKSGFEMLVNNFSAGIIGMILAILAFLGIGPIVEALSKMLAAGVNFMVVHDMLPLASIFVEPAKILFLNNAINHGIFSPLGIQQSHELGKSIFFLIEANPGPGMGVLLAYMFFGRGSAKQSAGGAAIIHFLGGIHEIYFPYVLMNPRLILAVILGGMTGVFTLTILGGGLVSPASPGSILAVLAMTPKGAYFANIAGVCAAMAVSFVVSAILLKTSKVKEEDDIEAATRRMQDMKAESKGASPLSAGDVTNDLSHVRKIIVACDAGMGSSAMGAGVLRKKIQDAGLSQISVTNSAINNLPPDVDLVITHRDLTERAMRQVPQAQHISLTNFLDSGLYTSLTERLVAAQRHTANEEKVKDSLKDSFDDSSANLFKLGAENIFLGRKAATKEEAIRFAGEQLVKGGYVEPEYVQAMLDREKLTPTYLGESIAVPHGTVEAKDRVLKTGVVFCQYPEGVRFGEEEDDIARLVIGIAARNNEHIQVITSLTNALDDESVIERLAHTTSVDEVLELLAGRK	6.55 ± 0.42	6.42 ± 0.66	6.25 ± 0.23		6.64 ± 0.41	12.66 ± 0.082	6.4 ± 0.15		6.275 ± 0.059	3.35 ± 0.32	13.8 ± 1.2	6.92 ± 0.54
MSRLSPVNQARWARFRHNRRGYWSLWIFLVLFGLSLCSELIANDKPLLVRYDGSWYFPLLKNYSESDFGGPLASQADYQDPWLKQRLENNGWVLWAPIRFGATSINFATNKPFPSPPSRQNWLGTDANGGDVLARILYGTRISVLFGLMLTLCSSVMGVLAGALQGYYGGKVDLWGQRFIEVWSGMPTLFLIILLSSVVQPNFWWLLAITVLFGWMSLVGVVRAEFLRTRNFDYIRAAQALGVSDRSIILRHMLPNAMVATLTFLPFILCSSITTLTSLDFLGFGLPLGSPSLGELLLQGKNNLQAPWLGITAFLSVAILLSLLIFIGEAVRDAFDPNKAV	6	6.1			5.43 ± 0.61		6.44				13.2	
MTKHYDYIAIGGGSGGIASINRAAMYGQKCALIEAKELGGTCVNVGCVPKKVMWHAAQIREAIHMYGPDYGFDTTINKFNWETLIASRTAYIDRIHTSYENVLGKNNVDVIKGFARFVDAKTLEVNGETITADHILIATGGRPSHPDIPGVEYGIDSDGFFALPALPERVAVVGAGYIAVELAGVINGLGAKTHLFVRKHAPLRSFDPMISETLVEVMNAEGPQLHTNAIPKAVVKNTDGSLTLELEDGRSETVDCLIWAIGREPANDNINLEAAGVKTNEKGYIVVDKYQNTNIEGIYAVGDNTGAVELTPVAVAAGRRLSERLFNNKPDEHLDYSNIPTVVFSHPPIGTVGLTEPQAREQYGDDQVKVYKSSFTAMYTAVTTHRQPCRMKLVCVGSEEKIVGIHGIGFGMDEMLQGFAVALKMGATKKDFDNTVAIHPTAAEEFVTMR	5.12 ± 0.23	5.46 ± 0.48	4.85 ± 0.18	5.81 ± 0.49	4.64 ± 0.066	11.5 ± 0.61	5.08 ± 0.14	8.33 ± 0.71	6.07 ± 0.31	3.02 ± 0.17	13 ± 0.92	6.27 ± 0.5
